# Results from patent US20160016995A1.
# How the values were obtained:
# [1] = tested on: GFP-pdt#3 (Example 1) [GFP: P42212]
# [2] = tested on: GFP-pdt#5 (Example 1) [GFP: P42212]
# [3] = tested on: GFP-pdt#4 (Example 1) [GFP: P42212]
# [4] = tested on: GFP-pdt (GFP with C-terminal wild-type M. florum ssrA tag) [GFP: P42212]
# [5] = tested on: GFP-pdt#5B (Example 1) [GFP: P42212]
# [6] = tested on: GFP-pdt#2 (Example 1) [GFP: P42212]
# [7] = tested on: GFP-pdt#5A (Example 1) [GFP: P42212]
# [8] = tested on: untagged GFP (GFPmut3b) [GFP: P42212]
# [9] = tested on: GFP-pdt#6 (Example 1) [GFP: P42212]
# [10] = tested on: GFP-pdt#5H (Example 1) [GFP: P42212]
substance,measurement,setting,value
Mesoplasma florum Lon protease (mf-Lon),Fold Degradation (0 vs 50 ng/ml aTc),GFP-pdt#10 [GFP: P42212],41.5 fold
same,Fold Degradation (0 vs 50 ng/ml aTc),GFP-pdt#5D [GFP: P42212],12 fold
same,Fold Degradation (0 vs 50 ng/ml aTc),GFP-pdt#7 [GFP: P42212],31.7 fold
same,Fold Degradation (0 vs 50 ng/ml aTc),[1],61.8 fold
same,Fold Degradation (0 vs 50 ng/ml aTc),[2],48.7 fold
same,Fold Degradation (0 vs 50 ng/ml aTc),[3],51 fold
same,Fold Degradation (0 vs 50 ng/ml aTc),[4],20.7 fold
same,GFP level after mf-Lon expression (Example 2),[4],reduced to 3% of its initial levels
same,Fold Degradation (0 vs 50 ng/ml aTc),GFP-pdt#S1 [GFP: P42212],39.4 fold
same,Fold Degradation (0 vs 50 ng/ml aTc),[5],2.6 fold
same,Fold Degradation (0 vs 50 ng/ml aTc),[6],51.8 fold
same,Fold Degradation (0 vs 50 ng/ml aTc),GFP-pdt#1 [GFP: P42212],24.6 fold
same,Fold Degradation (0 vs 50 ng/ml aTc),GFP-pdt#S2 [GFP: P42212],44.9 fold
same,Fold Degradation (0 vs 50 ng/ml aTc),GFP-pdt#5E [GFP: P42212],7.2 fold
same,Fold Degradation (0 vs 50 ng/ml aTc),GFP-pdt#5F [GFP: P42212],4 fold
same,Fold Degradation (0 vs 50 ng/ml aTc),GFP-pdt#13 [GFP: P42212],18.6 fold
same,Fold Degradation (0 vs 50 ng/ml aTc),GFP-pdt#11 [GFP: P42212],17.7 fold
same,Fold Degradation (0 vs 50 ng/ml aTc),[7],5.4 fold
same,Fold Degradation (0 vs 50 ng/ml aTc),[8],1.2 fold
same,Fold Degradation (0 vs 50 ng/ml aTc),GFP-pdt#5C [GFP: P42212],1.6 fold
same,Fold Degradation (0 vs 50 ng/ml aTc),GFP-pdt#12 [GFP: P42212],31.6 fold
same,Fold Degradation (0 vs 50 ng/ml aTc),GFP-pdt#9 [GFP: P42212],17 fold
same,Fold Degradation (0 vs 50 ng/ml aTc),GFP-pdt#S3 [GFP: P42212],38.7 fold
same,Fold Degradation (0 vs 50 ng/ml aTc),[9],55.4 fold
same,Fold Degradation (0 vs 50 ng/ml aTc),GFP-pdt#8 [GFP: P42212],48.4 fold
same,Fold Degradation (0 vs 50 ng/ml aTc),GFP-pdt#5G [GFP: P42212],4.2 fold
same,Fold Degradation (0 vs 50 ng/ml aTc),[10],3.6 fold
mf-Lon fused to the E. coli ssrA tag variant ec-AAV,GFP-pdt#3 (Example 2 name) degradation across ATc levels,[2],resulting in reduced GFP-pdt#3 degradation throughout the range of ATc levels tested
